Laboratory results from patent US20210269549A1, “ANTI-SAS1B ANTIBODIES, ASSOCIATED METHODS OF USE, AND COMPOSITIONS AND METHODS FOR DETECTING AND TREATING CANCER” (UNIVERSITY OF VIRGINIA PATENT FOUNDATION, priority 2015, published 2021).
Entries after “also recorded” stand apart in the source; their conditions may differ.

T1: full-length SAS1B splice variant A polypeptide (Homo sapiens, UniProt Q6HA08)
T1 construct: made in house
T1 sequence (Q6HA08 24-431): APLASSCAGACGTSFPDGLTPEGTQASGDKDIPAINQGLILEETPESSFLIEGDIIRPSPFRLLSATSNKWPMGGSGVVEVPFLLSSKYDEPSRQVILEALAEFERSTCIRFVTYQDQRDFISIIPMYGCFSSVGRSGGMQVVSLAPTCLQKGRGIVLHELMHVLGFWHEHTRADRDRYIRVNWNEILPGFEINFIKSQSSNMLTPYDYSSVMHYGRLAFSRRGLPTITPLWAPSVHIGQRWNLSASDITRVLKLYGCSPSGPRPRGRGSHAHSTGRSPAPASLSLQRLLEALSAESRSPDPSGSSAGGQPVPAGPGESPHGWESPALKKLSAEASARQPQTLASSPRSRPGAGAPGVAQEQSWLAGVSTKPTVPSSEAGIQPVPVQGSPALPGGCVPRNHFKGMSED

T2: human SAS1B (Homo sapiens, UniProt Q6HA08)
T2 construct: made in house; host or cells: E. coli
T2 sequence (Q6HA08 24-431): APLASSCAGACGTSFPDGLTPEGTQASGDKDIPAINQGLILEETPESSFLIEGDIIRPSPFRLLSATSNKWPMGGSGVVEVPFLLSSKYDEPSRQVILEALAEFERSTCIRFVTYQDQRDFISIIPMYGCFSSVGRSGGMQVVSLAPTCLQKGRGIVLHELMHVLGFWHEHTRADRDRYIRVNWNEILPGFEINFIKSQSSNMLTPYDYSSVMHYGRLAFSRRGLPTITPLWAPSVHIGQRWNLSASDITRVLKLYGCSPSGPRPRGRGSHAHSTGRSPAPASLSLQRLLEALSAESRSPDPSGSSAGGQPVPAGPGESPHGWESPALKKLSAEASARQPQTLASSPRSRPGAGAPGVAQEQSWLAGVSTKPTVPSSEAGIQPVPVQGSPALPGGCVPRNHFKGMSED


Legend:
[1] = target: T1, full-length SAS1B splice variant A polypeptide; experiment: Western blot with mammalian cell-expressed recombinant SAS1B, full length; type: binding
Protocol: SAS1B monoclonal antibodies were analyzed with mammalian cell-expressed recombinant SAS1B by western blotting.

[2] = tested on: M1 (renal cancer cell line); experiment: Live cell surface indirect immunofluorescence, M1; type: cell-based; details: live cells on ice; two cancer cell lines (M1, MMMT539)
Protocol: Anti-Human SAS1B mouse monoclonal antibodies reactive to SAS1B epitope on live cancer cell surfaces were identified by indirect immuno-fluorescence (IF) for the development of therapeutic antibodies. M1 (renal cancer cell line) and MMMT539 (uterine cancer cell line) cells were seeded at 20,000 cells in 1 ml per well on collagen coated coverslips in 24 well plates. The media was replaced 22 h post seeding. For antibody probing, cells were kept on ice for ˜8 to 18 min following 47 h post-seeding. The first antibody was added at 10 ug/ml, 20 ug/ml or 50 ug/ml in complete culture media with 15 mM NaN3 (pre-chilled), incubated on ice for 60 min, and the cells washed in complete culture media with 15 mM NaN3 in cold 1 ml, ×3. The second antibody, goat-antimouse-AF488 (pre-chilled), was added to the wells at 5 ug/ml in complete culture media with 15 mM NaN3 for 60 min on ice. The cells were washed in complete media with 15 mM NaN3, 1 ml, ×3 on ice. The cells were fixed in 4% PFA in PBS for 20 minutes on ice. The cells were washed in distilled water at RT, 1 ml, ×1 and mounted in 8 ul of SLOWFADE® Diamond Antifade Mountant with DAPI. An anti-EGFR monoclonal antibody was used as a positive control on live M1 cells. Epidermal growth factor receptor (EGFR) is a transmembrane glycoprotein and member of protein kinase superfamily. […] Anti-human CABYR monoclonal antibody 3A4 was used as a negative control on live MMMT539 cells. CABYR is a calcium binding cytoskeleton sperm protein with no transmembrane domain.

human SAS1B = target: T2, human SAS1B; experiment: Immunoprecipitation of SAS1B from HEK293T cells transfected with SAS1B; type: binding; details: for Pull down (immunoprecipitation) of SAS1B: HEK293T extract, western blot detection with anti-His mAb
Protocol: HEK293T cells were transfected with human SAS1B full length cDNA for 66 h. Immuno-precipitation of SAS1B was completed with SB1, SB2, SB4 and SB5 monoclonal antibodies. Following SAS1B immunoprecipitation, detection was completed with mouse anti-His tag mAb at C-terminus. Immunoprecipitated samples were analyzed by protein staining with Coomassie staining. Immunoprecipitated sample was also analyzed by MS/MS analysis. VH and VL chain CDR1-3 regions were sequenced for the confirmed anti-SAS1B mAbs. Immunoprecipitation was performed with N-terminal mAbs from transfected cells extracted with RIPA/protease inhibitor. Detection of the SAS1B immunoprecipitation product was completed with HRP peroxidase conjugated mouse anti-His mAb at 1:3000 or 1:5000 dilution. HEK293T cells were seeded at 250,000. The cells were transfected with […] of SAS1B-SVA plasmid into each of the two T-75 flasks (at ˜90% confluency) for ˜66 h at 37 C and 5% CO2. Following transfection, two saline washes were completed with 1×HBSS. Lysed cells were incubated with RIPA+protease inhibitor for one hour on ice with mixing to ensure homogenous lysate and supernatant used for IP (RIPA: 25 mM Tris-HCl (pH 7.6), 150 mM NaCl, 1% NP-40, 1% sodium deoxycholate, 0.1% SDS). For the immunoprecipitation, 3 mg magnetic bead coupled protein G were suspended and incubated with […] of each SAS1B monoclonal antibody for 10 minutes. The magnetic bead/antibody complex was washed with PBST once, followed by incubation with […] antigen extract for 20 min. The post-immunoprecipitation sample was saved for comparison. Three 200 mL washes with washing buffer+protease inhibitor were completed. The fourth wash used only 100 mL of wash buffer+protease inhibitor. The magnetic beads were transferred to a new micro-centrifuge tube. 1× Lamelli buffer was added to bead/antibody/antigen complex for subsequent analysis. The sample was boiled at 98° C. for 10 min in 1× Lamelli buffer and the supernatant transferred to a new tube. The immunoprecipitation sample was analyzed by western blot and Coomassie blue staining. The SDS-PAGE samples (pre-IP, IP, and post IP extracts) were resolved with 12% TGX Criterion gels at 30 milliamps for 1 hr. Coomassie stain was added to determine the profile of IP samples. Following SDS-PAGE resolution, bands were transferred to nitrocellulose membrane at 1 Amp for 1 h at 5° C. The membrane was blocked with 5% dry milk/PBST, and incubated with mouse anti-His monoclonal antibody conjugated with HRP for 1 hr at RT at 1:3000 or 1:5000 dilution. The membranes were imaged with TMB solution.
A unique ˜52 kD band was recovered in SB5 IP. SB5 (IgG2b) has a different isotype than SB1 (IgG2a), and 3A7 (IgG1). The ˜52 kD band from the SB5 immunoprecipitation was isolated, restained with Coomassie blue and submitted for MS/MS to verify protein identity. The MS/MS nanospray ion source was operated at 2.5 kV. The digest was analyzed using the rapid switching capability of the instrument acquiring a full screen mass spectrum to determine peptide molecular weights followed by product ion spectra to determine amino acid sequence in sequential scans. This mode of analysis produces about 20,000 MS/MS spectra of ions ranging in abundance over several orders of magnitude. Not all MS/MS spectra are derived from peptides. The data were analyzed using the Sequest search algorithm against Uniprot Human and SwissProt.

| Molecule | Reaction with full-length SAS1B splice variant A polypeptide [1] | Surface labelling of live cancer cells [2] | Pull down (immunoprecipitation) of SAS1B (human SAS1B) | Depletion of SAS1B in post IP sample compared to starting material (human SAS1B) | MS/MS analysis of the IP sample (~52 kD band) (human SAS1B) |
| --- | --- | --- | --- | --- | --- |
| SB2: mouse anti-human SAS1B monoclonal antibody, IgG2b; VH SEQ ID NO:14, VL SEQ ID NO:15 (antibody, listed as Mus musculus, V domains shown) VH: EVQLQQSGPELVKPGSSVKISCKASGYTFTDYNMVWVKQSHGKSLEWIGAVNPNNGGTSYNQKFKGKATLTVDKSSSTAYMELRSLTSEDSAVYYCVPNWDWFAYWGQGTLVTVSA VL: DVLMTQTPLSLPVSLGDQASISCRSSQSLVHSNGNTYLEWYLQKPGQSPNLLIYKVSNRFSGVPDRFSGSGSGTDFTLKISRVEAEDLGVYYCFQGSHVPFTFGSGTKLEIK | reacted with the full-length SAS1B splice variant A polypeptide | labelled the surface | pulled down recombinant SAS1B |  |  |
| SB4: mouse anti-human SAS1B monoclonal antibody, IgG2a; VH SEQ ID NO:16, VL SEQ ID NO:17 (antibody, listed as Mus musculus, V domains shown) VH: EVQLQQSGPELVKPGSSVKISCKPSGYTFTDYNMVWMKQSHGKSLEWIGAINPNNGGTTYNQKFKGKATLTVDKSSSTAYMELRSLTSEDSAVYYCAPNWDWFAYWGQGTLVTVSA VL: DVLMTQTPLSLPVSLGDQASISCRSSQSILHSNGNTYLEWYLQKPGQSPKLLIYKVSNRFSGVPDRFSGSGSGTDFTLKISRVEAEDLGVYYCFQGSHVPFTFGSGTKLEIK | reacted with the full-length SAS1B splice variant A polypeptide | labelled the surface | pulled down recombinant SAS1B; also recorded: immunoprecipitate “native” SAS1B | clear relative reduction of SAS1B |  |
| SB3: mouse anti-human SAS1B monoclonal antibody, IgG2b; VH SEQ ID NO:14, VL SEQ ID NO:15 (antibody, listed as Mus musculus, V domains shown) VH: EVQLQQSGPELVKPGSSVKISCKASGYTFTDYNMVWVKQSHGKSLEWIGAVNPNNGGTSYNQKFKGKATLTVDKSSSTAYMELRSLTSEDSAVYYCVPNWDWFAYWGQGTLVTVSA VL: DVLMTQTPLSLPVSLGDQASISCRSSQSLVHSNGNTYLEWYLQKPGQSPNLLIYKVSNRFSGVPDRFSGSGSGTDFTLKISRVEAEDLGVYYCFQGSHVPFTFGSGTKLEIK | reacted with the full-length SAS1B splice variant A polypeptide | labelled the surface | immunoprecipitate “native” SAS1B |  |  |
| SB5: mouse anti-human SAS1B monoclonal antibody, IgG2b; VH SEQ ID NO:16, VL SEQ ID NO:18 (antibody, listed as Mus musculus, V domains shown) VH: EVQLQQSGPELVKPGSSVKISCKPSGYTFTDYNMVWMKQSHGKSLEWIGAINPNNGGTTYNQKFKGKATLTVDKSSSTAYMELRSLTSEDSAVYYCAPNWDWFAYWGQGTLVTVSA VL: DVLMTQIPLSLPVSLGDQASISCRSSQSILHSNGNTYLEWYLQKPGQSPKLLIYKVSNRFSGVPDRFSGSGSGTDFTLKISRVEAEDLGVYYCFQGSHVPFTFGSGTKLEIK | reacted with the full-length SAS1B splice variant A polypeptide | labelled the surface | pulled down; also recorded: immunoprecipitate “native” SAS1B | relative depletion of antigen in post IP samples | confirmed the specificity of the mAb for Human SAS1B protein |
| SB1: mouse anti-SAS1B monoclonal antibody, IgG2a; VH SEQ ID NO:12, VL SEQ ID NO:13 (antibody, listed as Mus musculus, V domains shown) VH: EVQLQQSGPELVKPGSSVKISCKASGYTFTDYNMDWVKQSHGKSLEWIGAINPNNGGTSYNQKFKGKATLTVDKSSSTAYMELRSLTSEDSAVYYCATNEYWGQGTTLTVSS VL: NIVMTQSPKSMSMSVGERVTLSCKASENVGTYVSWYQQKPEQSPKLLIYGASNRYTGVPDRFTGSGSATDFTLTISSVQAEDLADYHCGQSYSYPWTFGGGTKLEIK | reacted with the full-length SAS1B splice variant A polypeptide | labelled the surface | pulled down | relative depletion of antigen in post IP samples |  |
